# Experimental data: PMC9076634, “Fibronectin binding protein B binds to loricrin and promotes corneocyte adhesion by Staphylococcus aureus” (Nature Communications, 2022)
# T1: recombinant GST-tagged human loricrin (GST-loricrin) (human, UniProt P23490 1-312)
# T1 construct: loricrin, human, full length; also called GST-tagged full length loricrin
# T1 sequence (looked up): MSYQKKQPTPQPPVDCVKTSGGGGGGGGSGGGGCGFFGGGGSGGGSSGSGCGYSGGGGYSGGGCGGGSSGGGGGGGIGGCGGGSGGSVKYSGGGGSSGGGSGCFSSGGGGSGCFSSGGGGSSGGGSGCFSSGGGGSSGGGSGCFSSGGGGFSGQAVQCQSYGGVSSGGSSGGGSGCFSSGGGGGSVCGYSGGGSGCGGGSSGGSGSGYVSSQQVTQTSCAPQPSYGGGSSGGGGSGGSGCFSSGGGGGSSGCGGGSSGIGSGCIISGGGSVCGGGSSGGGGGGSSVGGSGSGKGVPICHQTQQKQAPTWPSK
# B1: fibronectin binding protein B (FnBPB) on S. aureus SH1000 4X (pFnBPB) cells (natural protein)
# chain: ASEQNNTTVEESGSSATESKASETQTTTNNVNTIDETQSYSATSTEQPSQSTQVTTEEAPKTVQAPKVETSRVDLPSEKVADKETTGTQVDIAQPSNVSEIKPRMKRSTDVTAVAEKEVVEETKATGTDVTNKVEVEEGSEIVGHKQDTNVVNPHNAERVTLKYKWKFGEGIKAGDYFDFTLSDNVETHGISTLRKVPEIKSTDGQVMATGEIIGERKVRYTFKEYVQEKKDLTAELSLNLFIDPTTVTQKGNQNVEVKLGETTVSKIFNIQYLGGVRDNWGVTANGRIDTLNKVDGKFSHFAYMKPNNQSLSSVTVTGQVTKGNKPGVNNPTVKVYKHIGSDDLAESVYAKLDDVSKFEDVTDNMSLDFDTNGGYSLNFNNLDQSKNYVIKYEGYYDSNASNLEFQTHLFGYYNYYYTSNLTWKNGVAFYSNNAQGDGKDKLKEPIIEHSTPIELEFKSEPPVEKHELTGTIEESNDSKPIDFEYHTAVEGAEGHAEGTIETEEDSIHVDFEESTHENSKHHADVVEYEEDTNPGGGQVTTESNLVEFDEDSTKGIVTGAVSDHTTIEDTKEYTTESNLIELVDELPEEHGQAQGPIEEITENNHHISHSGLGTENGHGNYGVIEEIEENSHVDIKSELGYEGGQNSGNQSFEEDTEEDKPKYEQGGNIVDIDFDSVPQIHGQNNGNQSFEEDTEKDKPKYEQGGNIIDIDFDSVPHIHGFNKHTEIIEEDTNKDKPNYQFGGHNSVDFEEDTLPQVSGHNEGQQTIEEDTTPPIVPPTPPTPEVPSEPETPTPPTPEVPSEPETPTPPTPEVPTEPGKPIPPAKEEPKKPSKPVEQGKVVTPVIEINEKVKAVVPTKKAQSKKSELPET
# Molecular target: T1, recombinant GST-tagged human loricrin …
# Assay: dynamic force spectroscopy (AFM); as the single-molecule force spectroscopy, retraction speeds 1, 2.5, 5 and 10 µm s^-1; Bell-Evans fit of the high-force regime (loading rates 1.4 × 10^4 to 5 × 10^5 pN s^-1)
# Conditions: one partner purified
binder,measurement,value
B1,koff,5.8e-09 s⁻¹
